Experimental data as given in US20240376170A1 (BRIGHT PEAK THERAPEUTICS, published 2024).
Bridges are numbered along the chain shown (N, C = ends). Primed or numbered codes have the meaning given here. [ ]: non-standard residue; d: D form. 8x polyethylene glycol‑amino = O-(8x polyethylene glycol-amino)-tyrosine, SITE 45; 9x polyethylene glycol‑azido = O-(9x polyethylene glycol-azido)-tyrosine, SITE 42; Ygp = O-(8x polyethylene glycol-amino)-tyrosine (Tyr, amino-capped PEG8); Yn3 = O-(9x polyethylene glycol-azido)-tyrosine (Tyr, azide-capped PEG9); Ygp″ = O-(8x polyethylene glycol-amino)-tyrosine; Yn3″ = O-(9x polyethylene glycol-azido)-tyrosine; Ygp(6) = Tyr, amino-capped PEG8; Yn3(6) = Tyr, azide-capped PEG9; PEG4′ = 4x polyethylene glycol; hSer = N[C@@H](CCO)C(=O)O; Nle = CCCC[C@H](N)C(=O)O

T1: IL-2Rβγ on HEK-Blue IL-2Rβγ reporter cells (InvivoGen) (UniProt P14784 27-551; P31785 23-369, limits assumed)
T1 sequence (looked up) 1: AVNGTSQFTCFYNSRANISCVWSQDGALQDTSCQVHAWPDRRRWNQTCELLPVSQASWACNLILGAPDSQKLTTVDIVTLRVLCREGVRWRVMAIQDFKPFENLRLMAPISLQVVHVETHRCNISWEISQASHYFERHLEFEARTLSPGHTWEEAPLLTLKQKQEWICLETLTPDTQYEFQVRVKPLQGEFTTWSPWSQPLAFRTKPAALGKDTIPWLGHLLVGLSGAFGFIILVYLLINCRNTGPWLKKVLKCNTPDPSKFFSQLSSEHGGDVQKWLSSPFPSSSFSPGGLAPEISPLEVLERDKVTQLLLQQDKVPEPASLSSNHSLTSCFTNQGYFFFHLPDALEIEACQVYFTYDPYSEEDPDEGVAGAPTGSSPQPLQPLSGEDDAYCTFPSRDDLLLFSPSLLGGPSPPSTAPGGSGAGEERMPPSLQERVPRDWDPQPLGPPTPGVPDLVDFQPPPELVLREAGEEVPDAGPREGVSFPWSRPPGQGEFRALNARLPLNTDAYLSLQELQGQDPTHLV
T1 sequence (looked up) 2: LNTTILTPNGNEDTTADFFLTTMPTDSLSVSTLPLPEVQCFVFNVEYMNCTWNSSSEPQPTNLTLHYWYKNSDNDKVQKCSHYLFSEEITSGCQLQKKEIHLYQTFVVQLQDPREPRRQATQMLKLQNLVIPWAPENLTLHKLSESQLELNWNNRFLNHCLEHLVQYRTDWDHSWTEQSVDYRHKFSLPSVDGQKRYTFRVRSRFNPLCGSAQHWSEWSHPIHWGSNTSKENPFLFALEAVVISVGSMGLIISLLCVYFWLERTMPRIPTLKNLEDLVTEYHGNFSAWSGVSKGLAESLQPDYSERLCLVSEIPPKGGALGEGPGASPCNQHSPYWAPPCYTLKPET


Target: T1, IL-2Rβγ on HEK-Blue IL-2Rβγ reporter …
Assay: cell-based or functional assay

| Binder | Average EC50, HEK-Blue IL-2R (CD122+, CD132+) Reporter Assay, uPa cleaved molecule | Average EC50, HEK-Blue IL-2R (CD122+, CD132+) Reporter Assay, Matriptase cleaved molecule | other results |
| --- | --- | --- | --- |
| CMP-321 (ligand, lactam N-32) SGRVQPLVDAPTSSSTKKTQLQLEHLLLDLQEILNGINNYKNPKLTR[Nle]L[hSer][Yn3(6)]KF[Ygp(6)][Nle]PKKATELKHLQCLEEELKPLEEVL[hSer]LAQSKNFHLRPRDLISNINVIVLELKGSETTF[hSer]CEYADETATIVEFLNRWITFSQSIISTLT | – | – | Average EC50, HEK-Blue IL-2R (CD122+, CD132+) Reporter Assay, intact molecule: 4.2 nM |
| CMP-300 (ligand, lactam N-31; ends not checked) GPLGLAG[PEG4′]APTSSSTKKTQLQLEHLLLDLQEILNGINNYKNPKLTR[Nle]L[hSer][Yn3″]KF[Ygp″][Nle]PKKATELKHLQCLEEELKPLEEVL[hSer]LAQSKNFHLRPRDLISNINVIVLELKGSETTF[hSer]CEYADETATIVEFLNRWITFSQSIISTLT | – | – | Average EC50, HEK-Blue IL-2R (CD122+, CD132+) Reporter Assay, intact molecule: 0.711 nM |
| CMP-315, matriptase cleaved (ligand, ends and bridges not checked; also: further groups not given here, tested after matriptase cleavage, remaining product not given here) APTSSSTKKTQLQLEHLLLDLQKILNGINNYKNPKLTR[Nle]L[hSer][Yn3]KF[Ygp][Nle]PKKATELKHLQCLEEELKPLEEVL[hSer]LAQSKNFHLRPRDLISNINVIVLELKGSETTF[hSer]CEYADETATIVEFLNRWITFSQSIISTLT | – | 0.0349 nM | – |
| CMP-316, matriptase cleaved (ligand, ends and bridges not checked; also: further groups not given here, tested after matriptase cleavage, remaining product not given here) APTSSSTKKTQLQLEHLLLDLQKILNGINNYKNPKLTR[Nle]L[hSer][Yn3]KF[Ygp][Nle]PKKATELKHLQCLEEELKPLEEVL[hSer]LAQSKNFHLRPRDLISNINVIVLELKGSETTF[hSer]CEYADETATIVEFLNRWITFSQSIISTLT | – | 0.0828 nM | – |
| CMP-315, uPa cleaved (ligand, ends and bridges not checked; also: further groups not given here, tested after uPa cleavage, remaining product not given here) APTSSSTKKTQLQLEHLLLDLQKILNGINNYKNPKLTR[Nle]L[hSer][Yn3]KF[Ygp][Nle]PKKATELKHLQCLEEELKPLEEVL[hSer]LAQSKNFHLRPRDLISNINVIVLELKGSETTF[hSer]CEYADETATIVEFLNRWITFSQSIISTLT | 0.0581 nM | – | – |
| CMP-316, uPa cleaved (ligand, ends and bridges not checked; also: further groups not given here, tested after uPa cleavage, remaining product not given here) APTSSSTKKTQLQLEHLLLDLQKILNGINNYKNPKLTR[Nle]L[hSer][Yn3]KF[Ygp][Nle]PKKATELKHLQCLEEELKPLEEVL[hSer]LAQSKNFHLRPRDLISNINVIVLELKGSETTF[hSer]CEYADETATIVEFLNRWITFSQSIISTLT | 0.0884 nM | – | – |

The next lines start with results.

| Average EC50, HEK-Blue IL-2R (CD122+, CD132+) Reporter Assay, uPa cleaved molecule | Average EC50, HEK-Blue IL-2R (CD122+, CD132+) Reporter Assay, Matriptase cleaved molecule | Binder | other results |
| --- | --- | --- | --- |
| 1.41 nM | – | CMP-329, uPa cleaved (ligand, ends and bridges not checked; also: uPa-cleaved, cut in the RQRRSVVGG bridge between Lys9 and Glu23, remaining fragments not given here) APTSSSTKKTQLQLEHLLLDLQEILNGINNYKNPKLTR[Nle]L[hSer][Yn3″]KF[Ygp″][Nle]PKKATELKHLQCLEEELKPLEEVL[hSer]LAQSKNFHLRPRDLISNINVIVLELKGSETTF[hSer]CEYADETATIVEFLNRWITFSQSIISTLT | – |
| – | 1.47 nM | CMP-329, matriptase cleaved (ligand, ends and bridges not checked; also: after matriptase cleavage, remnants of the Lys9–Glu23 peptide linker not given here) APTSSSTKKTQLQLEHLLLDLQEILNGINNYKNPKLTR[Nle]L[hSer][Yn3″]KF[Ygp″][Nle]PKKATELKHLQCLEEELKPLEEVL[hSer]LAQSKNFHLRPRDLISNINVIVLELKGSETTF[hSer]CEYADETATIVEFLNRWITFSQSIISTLT | – |
| – | 4.22 nM | CMP-321, matriptase cleaved (ligand, not fully specified (bridges)) SGRVQPLVDAPTSSSTKKTQLQLEHLLLDLQEILNGINNYKNPKLTR[Nle]L[hSer][Yn3(6)]KF[Ygp(6)][Nle]PKKATELKHLQCLEEELKPLEEVL[hSer]LAQSKNFHLRPRDLISNINVIVLELKGSETTF[hSer]CEYADETATIVEFLNRWITFSQSIISTLT | – |
| 0.571 nM | – | CMP-328, uPa cleaved (ligand, also: uPa-cleaved, before the cut Lys9-Glu23 side chains bridged by peptide linker, product not given here) APTSSSTKKTQLQLEHLLLDLQEILNGINNYKNPKLTR[Nle]L[hSer][Yn3]KF[Ygp][Nle]PKKATELKHLQCLEEELKPLEEVL[hSer]LAQSKNFHLRPRDLISNINVIVLELKGSETTF[hSer]CEYADETATIVEFLNRWITFSQSIISTLT | – |
| 1.73 nM | – | CMP-330, uPa cleaved (ligand, not fully specified; also: before the cut Lys9 and Glu23 side chains are bridged by a peptide linker, what remains after the cut not given here) APTSSSTKKTQLQLEHLLLDLQEILNGINNYKNPKLTR[Nle]L[hSer]Y(9x polyethylene glycol‑azido)KFY(8x polyethylene glycol‑amino)[Nle]PKKATELKHLQCLEEELKPLEEVL[hSer]LAQSKNFHLRPRDLISNINVIVLELKGSETTF[hSer]CEYADETATIVEFLNRWITFSQSIISTLT | – |
| – | 2.15 nM | CMP-330, matriptase cleaved (ligand, not fully specified; also: before the cut Lys9 and Glu23 side chains are bridged by a peptide linker, what remains after the cut not given here) APTSSSTKKTQLQLEHLLLDLQEILNGINNYKNPKLTR[Nle]L[hSer]Y(9x polyethylene glycol‑azido)KFY(8x polyethylene glycol‑amino)[Nle]PKKATELKHLQCLEEELKPLEEVL[hSer]LAQSKNFHLRPRDLISNINVIVLELKGSETTF[hSer]CEYADETATIVEFLNRWITFSQSIISTLT | – |
| – | 0.352 nM | CMP-328, matriptase cleaved (ligand, also: matriptase-cleaved, before the cut Lys9-Glu23 side chains bridged by peptide linker, product not given here) APTSSSTKKTQLQLEHLLLDLQEILNGINNYKNPKLTR[Nle]L[hSer][Yn3]KF[Ygp][Nle]PKKATELKHLQCLEEELKPLEEVL[hSer]LAQSKNFHLRPRDLISNINVIVLELKGSETTF[hSer]CEYADETATIVEFLNRWITFSQSIISTLT | – |
